For data set [1] the following is noted: cited from earlier work.
Data set [2] addresses T1, human GLP-1 receptor (Homo sapiens, UniProt P43220).
T1 construct: expressed in transfected cells; host or cells: CHO DG44
Description: cAMP activity of dual agonist in cell line expressing human GLP-1 receptor. It counts as cell-based. Conditions: EC50 compared with native GLP-1, CHO DG44 cells. From the text:
(§1) and GIP A recombinant vector was constructed using the expression vector X0GC/dhfr so as to express human GLP-1 receptor and human GIP receptor, then transformed into CHO DG44 cells using lipofectamine, and selectively cultured in a selective medium containing G418 and methotrexate. From this, monoclonal cell lines were selected by limiting dilution. Among these, cell lines showing excellent concentration-dependent cAMP response to GLP-1 and GIP were finally selected.
(§2) In the cell lines expressing human GLP-1 receptor and human GIP receptor produced in Example 6, the activity of the dual agonist synthesized in Example 7 was measured.
(§3) Specifically, the transformed cell lines of Example 6 were subcultured 3 or 4 times a week, and then the subcultured cell lines were seeded in a 384-well plate by 6×10^3 per well and cultured for 24 hours. In HBSS (Hank's balanced salt solution) buffer containing 0.5 mM IBMX (3-isobutyl-1-methylxanthine), 0.1% BSA (bovine serum albumin), and 5 mM HEPES (4-(2-hydroxyethyl)-1-piperazineethanesulfonic acid), native GLP-1 and GIP were suspended at 200 nM and the dual agonist at 1600 nM, and then serially diluted 4-fold 10 times. This was applied to the cAMP assay kit (LANCE cAMP 384 kit, PerkinElmer) and added to each of the cultured cell lines, and then the fluorescence value was measured.

The target of data set [3] is T2, human GIP receptor (Homo sapiens, UniProt P48546).
T2 construct: expressed in transfected cells; host or cells: CHO DG44
T2 sequence (P48546 22-466): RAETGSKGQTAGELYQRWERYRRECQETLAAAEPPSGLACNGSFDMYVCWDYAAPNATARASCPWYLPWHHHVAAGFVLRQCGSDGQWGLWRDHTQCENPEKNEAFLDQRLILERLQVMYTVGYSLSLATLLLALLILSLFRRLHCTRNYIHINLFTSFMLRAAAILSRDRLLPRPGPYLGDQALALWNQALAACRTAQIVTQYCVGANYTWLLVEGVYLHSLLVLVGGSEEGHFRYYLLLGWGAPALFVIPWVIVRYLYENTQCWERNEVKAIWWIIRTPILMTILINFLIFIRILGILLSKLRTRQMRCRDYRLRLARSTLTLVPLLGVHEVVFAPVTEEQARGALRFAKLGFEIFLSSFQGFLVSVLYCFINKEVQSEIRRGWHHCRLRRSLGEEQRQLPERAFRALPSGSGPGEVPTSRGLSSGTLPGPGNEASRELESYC
Nature of the data set: cAMP activity of dual agonist in cell line expressing human GIP receptor. It counts as cell-based. Conditions: EC50 compared with native GIP, CHO DG44 cells.
Description: as §1, §2, §3

Data set [4] deals with high-fat diet-induced obese mouse. Nature of the data set: High-fat diet-induced obese mice: body weight, fat weight, blood lipids, HOMA-IR, energy metabolism-related gene expression. Type of data set: in vivo. Conditions: 21 days, subcutaneous; long-acting glucagon derivative 2.0 nmol/kg once every two days, tirzepatide 20 nmol/kg once every two days, Saxenda 50 nmol/kg twice a day. The method, then:
A high-fat diet-induced obese mouse, which was widely used as an obese animal model, was used for this study. The body weight of the mice was about 50 g to 55 g before administration. During the study period, seven mice were housed and had free access to water. The lights were turned off from 6 P.M. to 6 A.M.
The administration was performed by subcutaneous injection in all cases.
The experiment was terminated on the 21st day, the changes in body weight of the mice corresponding to each group were measured every two days during the experiment. After the experiment was terminated, the fat weight, blood lipid levels, HOMA-IR, and energy metabolism-related gene expression in tissues were measured.

The test system of the next data set is CD-HFD mouse model. Description: CD-HFD (choline-deficient and high-fat, high-cholesterol diet) mouse model of NASH and fibrosis: NAS and liver collagen expression. Type of data set: in vivo. Conditions: 6 weeks repeated administration Q2D subcutaneous, vs CD-HFD vehicle control. From the text: In order to verify the efficacy on NASH and fibrosis improvement by combined administration of the long-acting glucagon derivative and GLP-1/GIP dual agonist (tirzepatide) according to the present invention prepared in Examples, a CD-HFD (choline-deficient and high-fat, high-cholesterol diet) mouse model was used.
Mice induced by 8-week CD-HFD were divided into a vehicle control group, a long-acting glucagon derivative (1.3 nmol/kg, Q2D, subcutaneous) administration group, a dual agonist (73 nmol/kg, Q2D, subcutaneous) administration group, and a long-acting glucagon derivative and dual agonist combined administration group, and repeated administration was performed for 6 weeks. As a negative control group, a group administered with a vehicle to normal diet mice was used. After 6 weeks of repeated administration, the liver tissue of each mouse was taken as an autopsy, and the efficacy on NASH and fibrosis improvement was evaluated by measuring NAS (NAFLD activity score) through H&E staining and collagen expression through quantitative PCR.
For the statistical processing in all the cases, the vehicle group (control group) and the test groups were compared using one-way ANOVA, and the t-test was used to compare the additional efficacy of the combined administration group with that of the single administration group (* to ** p<0.05 to 0.001 vs. vehicle control group).

A further data set has as its target human glucagon receptor (human, UniProt P47871 26-477). Nature of the data set: cell-based or functional assay.
The target of data set [5] is T3, human GIP receptor (human, UniProt P48546 22-466).
T3 sequence (looked up): T2 sequence (P48546 22-466)
Nature of the data set: cell-based or functional assay.

The target of data set [6] is human GLP-1 receptor (human, UniProt P43220 24-463). Nature of the data set: cell-based or functional assay.

Where two headings read alike, the source gives them in different places. Positions of bridges follow the written chain, without caps; N, C: chain ends. Non-standard residues stand in square brackets, D forms with d. No end group written: not given here. Aib = CC(C)(N)C(=O)O

Chain of human glucagon receptor (P47871 26-477): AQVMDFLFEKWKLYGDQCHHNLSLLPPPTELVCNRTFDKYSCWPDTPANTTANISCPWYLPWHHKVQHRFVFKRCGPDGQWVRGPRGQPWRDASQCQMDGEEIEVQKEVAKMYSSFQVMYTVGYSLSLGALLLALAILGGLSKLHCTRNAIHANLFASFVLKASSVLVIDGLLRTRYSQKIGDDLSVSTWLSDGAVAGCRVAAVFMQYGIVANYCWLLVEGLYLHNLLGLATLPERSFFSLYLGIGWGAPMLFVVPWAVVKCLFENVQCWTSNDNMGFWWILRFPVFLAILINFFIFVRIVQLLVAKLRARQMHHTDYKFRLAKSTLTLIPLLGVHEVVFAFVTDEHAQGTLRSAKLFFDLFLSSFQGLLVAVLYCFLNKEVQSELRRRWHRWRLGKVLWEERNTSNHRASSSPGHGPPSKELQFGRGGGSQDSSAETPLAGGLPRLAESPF
T1 sequence (P43220 24-463): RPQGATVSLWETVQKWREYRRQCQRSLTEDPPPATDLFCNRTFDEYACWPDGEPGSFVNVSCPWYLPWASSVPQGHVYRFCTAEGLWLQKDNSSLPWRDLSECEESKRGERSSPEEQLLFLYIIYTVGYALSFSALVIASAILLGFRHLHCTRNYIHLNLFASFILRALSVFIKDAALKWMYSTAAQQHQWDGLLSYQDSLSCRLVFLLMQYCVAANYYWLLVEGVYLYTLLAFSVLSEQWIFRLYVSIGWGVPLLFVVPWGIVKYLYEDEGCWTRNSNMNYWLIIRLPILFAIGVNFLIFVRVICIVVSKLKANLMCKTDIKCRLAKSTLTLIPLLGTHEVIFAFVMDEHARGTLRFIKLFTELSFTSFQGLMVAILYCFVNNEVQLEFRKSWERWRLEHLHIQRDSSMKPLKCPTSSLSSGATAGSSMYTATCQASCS

On to contrave, for which, in data set [1] (in vivo), the side effects entry is reported as “cardiovascular side effects”. Turning to `CCCCCCCCCCC[C@@H](C[C@@H]1OC(=O)[C@H]1CCCCCC)OC(=O)[C@H](CC(C)C)NC=O` [orlistat], in data set [1] (taken for one year), the “body weight loss effect” value is reported as “about 4 kg”. In the case of `CC(C)CC(N(C)C)C1(c2ccc(Cl)cc2)CCC1` (stereo not drawn) [sibutramine], the side effects result in data set [1] (reported) was “cardiovascular side effects”. Consider `Cc1c(C(=O)NN2CCCCC2)nn(-c2ccc(Cl)cc2Cl)c1-c1ccc(Cl)cc1` [rimonabant], for which the side effects result in data set [1] (reported) is recorded as “central nervous system side effects”. Turning to `CC[C@H](C)[C@H](NC(=O)[C@H](CC(C)C)NC(=O)[C@H](Cc1c[nH]c2ccccc12)NC(=O)[C@H](CCC(N)=O)NC(=O)[C@@H](NC(=O)[C@H](Cc1ccccc1)NC(=O)[C@H](C)NC(=O)[C@H](CCCCNC(=O)COCCOCCNC(=O)COCCOCCNC(=O)CC[C@H](NC(=O)CCCCCCCCCCCCCCCCCCC(=O)O)C(=O)O)NC(=O)[C@H](CCC(N)=O)NC(=O)[C@H](C)NC(=O)[C@@H](NC(=O)[C@H](CCCCN)NC(=O)[C@H](CC(=O)O)NC(=O)[C@H](CC(C)C)NC(=O)C(C)(C)NC(=O)[C@@H](NC(=O)[C@H](CO)NC(=O)[C@H](Cc1ccc(O)cc1)NC(=O)[C@H](CC(=O)O)NC(=O)[C@H](CO)NC(=O)[C@@H](NC(=O)[C@H](Cc1ccccc1)NC(=O)[C@@H](NC(=O)CNC(=O)[C@H](CCC(=O)O)NC(=O)C(C)(C)NC(=O)[C@@H](N)Cc1ccc(O)cc1)[C@@H](C)O)[C@@H](C)O)[C@@H](C)CC)[C@@H](C)CC)C(C)C)C(=O)N[C@@H](C)C(=O)NCC(=O)NCC(=O)N1CCC[C@H]1C(=O)N[C@@H](CO)C(=O)N[C@@H](CO)C(=O)NCC(=O)N[C@@H](C)C(=O)N1CCC[C@H]1C(=O)N1CCC[C@H]1C(=O)N1CCC[C@H]1C(=O)N[C@@H](CO)C(N)=O` [Dual agonist (tirzepatide)], at human GLP-1 receptor [2], the “Relative in vitro activity to native ligand (EC50), GLP-1 receptor” value was determined as 1.3%. Further, the “Relative in vitro activity to native ligand (EC50), GIP receptor” value at human GIP receptor [3] was 6.7%. In data set [4], the “change in body weight compared to before administration” value is reported as −19.39%. For the same molecule, in the data set with CD-HFD mouse model (long-acting glucagon derivative 1.3 nmol/kg, dual agonist 73 nmol/kg, H&E staining), the “NAS (NAFLD activity score)” value is “significantly reduced”. In addition, the “collagen expression in liver tissue” value with CD-HFD mouse model (quantitative PCR) was “significantly reduced”. Take Y[Aib]QGTFTSDYSKYLDSCDAQDFVQWLINT [glucagon derivative of SEQ ID NO: 8]: the “In vitro activity (relative activity to SEQ ID NO: 1, %), cAMP assay, from EC50” value in the data set with human glucagon receptor was less than 0.1%. Same read-out and setting: then Y[Aib]QGTFTSDCSKYLDSRRAQDFVQWLMNT [glucagon derivative of SEQ ID NO: 43], with 1.6%.

B1: tirzepatide (peptide)
peptide: YXEGTFTSDYSIXLDKIAQKAFVQWLIAGGPSSGAPPPS
modifications: not fully specified; X at positions 2 and 13 = 2-methylalanine (Aib); Lys 20 N6-[(22S)-22,42-dicarboxy-10,19,24-trioxo-3,6,12,15-tetraoxa-9,18,23-triazadotetracontan-1-oyl]; C-terminal serinamide
Turning to B1, the figures for the “Relative in vitro activity to native ligand (EC50), cAMP assay” value with human GIP receptor [5] and in the data set with human GLP-1 receptor [6] were 6.7% and 1.3%, respectively. In the case of HSQGTFTSDYSKYLDSCEADDFVQWLMNT [glucagon derivative of SEQ ID NO: 6], the “In vitro activity (relative activity to SEQ ID NO: 1, %), cAMP assay, from EC50” value with human glucagon receptor is less than 0.1%. As to HSQGTFTSDYSKYLDSCEAQDFVQWLMNT [glucagon derivative of SEQ ID NO: 5], the “In vitro activity (relative activity to SEQ ID NO: 1, %), cAMP assay, from EC50” value with human glucagon receptor was 0.3%.

YXQGTFTSDYSKYLDSRRAQDFVQWLMNTC (X at position 2 = aminoisobutyric acid (Aib)) [glucagon derivative of SEQ ID NO: 44]: the “In vitro activity (relative activity to SEQ ID NO: 1, %), cAMP assay, from EC50” value with human glucagon receptor was 75.4%.

Y[Aib]QGTFTSDYSCYLDEKRAKEFVQWLMNT [glucagon derivative of SEQ ID NO: 45]: the “In vitro activity (relative activity to SEQ ID NO: 1, %), cAMP assay, from EC50” value with human glucagon receptor was found to be 5.2%. Consider HSQGTFTSDYSKYLDSCDAQDFVQWLMNT [glucagon derivative of SEQ ID NO: 4], for which the “In vitro activity (relative activity to SEQ ID NO: 1, %), cAMP assay, from EC50” value with human glucagon receptor is less than 0.1%. On the same count and under the same terms, then YSQGTFTSDYSKYLDSCEADDFVQWLMNT [glucagon derivative of SEQ ID NO: 7], with less than 0.1%. Still for that read-out and setting: the value for Y[Aib]QGTFCSDYSKYLDSRRAQDFVQWLMNT [glucagon derivative of SEQ ID NO: 42] was 37.9%; that for Y[Aib]QGTFCSDYSKYLDERRAKDFVQWLMNT (lactam 16-20) [glucagon derivative of SEQ ID NO: 41] was 45.2%.

The values are drawn from US20230000950A1, “COMPOSITION COMPRISING GLUCAGON AND GLP-1 AND GIP RECEPTOR DUAL AGONIST AND THERAPEUTIC USE OF SAME” (HANMI PHARM. CO., LTD., priority 2019, published 2023).
